According to publication PMC4338625, “Comparison of MAPK specificity across the ETS transcription factor family identifies a high-affinity ERK interaction required for ERG function in prostate cells” (Cell Communication and Signaling : CCS, 2015):

Legend:
[1] = target: ERK2 (pERK2, activated by co-expression with constitutively active MEK) (UniProt P63086); test: MST; 200 nM fluorescently labeled (RED-NHS) ERK2 incubated 30 minutes at room temperature in the dark with different concentrations of purified ETS1 or ERG; standard glass capillaries; NanoTemper Monolith NT.115, LED 80%, IR laser 80%
[2] = target: T1, ETS1, full-length human, 6x His-tagged (human, UniProt P14921 1-441); test: as above; conditions: both partners purified
T1 construct: human ETS1, full-length cDNA in pET28a
T1 sequence (looked up): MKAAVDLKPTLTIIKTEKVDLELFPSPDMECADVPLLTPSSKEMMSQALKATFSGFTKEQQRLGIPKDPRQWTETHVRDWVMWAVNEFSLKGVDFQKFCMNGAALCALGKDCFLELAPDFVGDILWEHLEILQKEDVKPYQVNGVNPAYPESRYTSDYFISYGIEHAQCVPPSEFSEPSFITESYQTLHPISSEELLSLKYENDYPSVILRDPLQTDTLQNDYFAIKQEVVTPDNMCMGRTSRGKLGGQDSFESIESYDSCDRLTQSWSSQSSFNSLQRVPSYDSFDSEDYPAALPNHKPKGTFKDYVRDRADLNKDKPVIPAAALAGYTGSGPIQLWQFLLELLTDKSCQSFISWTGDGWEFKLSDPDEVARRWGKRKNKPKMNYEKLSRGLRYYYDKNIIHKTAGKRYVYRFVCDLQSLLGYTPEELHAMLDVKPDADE

**Q.** How did the Kd [1] turn out when “ERG (isoform 1), full-length human, 6x His-tagged (natural protein)” was run?
**A.** 230 nM

B1: ERK2 (pERK2, activated by co-expression with constitutively active MEK) (enzyme, UniProt P63086 1-358, looked up)
chain: MAAAAAAGPEMVRGQVFDVGPRYTNLSYIGEGAYGMVCSAYDNLNKVRVAIKKISPFEHQTYCQRTLREIKILLRFRHENIIGINDIIRAPTIEQMKDVYIVQDLMETDLYKLLKTQHLSNDHICYFLYQILRGLKYIHSANVLHRDLKPSNLLLNTTCDLKICDFGLARVADPDHDHTGFLTEYVATRWYRAPEIMLNSKGYTKSIDIWSVGCILAEMLSNRPIFPGKHYLDQLNHILGILGSPSQEDLNCIINLKARNYLLSLPHKNKVPWNRLFPNADSKALDLLDKMLTFNPHKRIEVEQALAHPYLEQYYDPSDEPIAEAPFKFDMELDDLPKEKLKELIFEETARFQPGYRS
modifications: phosphorylated by co-expressed constitutively active MEK (pERK2); fluorescently labeled with amine reactive RED-NHS dye (Monolith Protein Labeling Kit RED-NHS)
notes: also called ERK2 kinase; source: co-expressed with constitutively active MEK, purified from bacteria as described [52]
**Q.** B1 was tested. Which Kd [2] did it give?
**A.** 1790 nM
